# Reference: the RNAGym collection of RNA variant scans (doi:10.1073/pnas.2313332121)
# Fewer inactive variants are shown than the library holds.
# B1: TPR 5TU (parent)
# chain: GGAUCUUCUCGAUCUAACAAAAAAGACAAAUCUGCCACAAAGCUUGAGAGCAUCUUCGGAUGCAGAGGCGGCAGCCUUCGGUGGCGCGAUAGCGCCAACGUUCUCAACUAUGACACGCAAAACGCGUGCUCCGUUGAAUGGAGUUUAUCAUG
# Variants of: B1
# Assay: polymerase ribozyme fitness, log enrichment relative to wild type (log ratio); higher = more active; in vitro selection for triplet polymerase activity
# Procedure, shortened: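 One round of in vitro selection, in triplicate, was applied to PCR-built, transcribed mutant libraries of each subunit of a heterodimeric triplet polymerase ribozyme. The steps were annealing with a biotinylated primer, partner subunit and triplets, incubation frozen at −7 °C, gel excision of extended constructs, streptavidin-bead capture and RT-PCR. Fitness is the logarithm, base 2, of genotype enrichment over wild-type enrichment from inverse-variance-weighted replicate averages of Illumina-sequenced inputs and outputs, keeping genotypes with ≥10 input reads and ≥1 read per output.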
row,Variant,polymerase ribozyme fitness (log ratio)
1,GGAUCUUCUCGAUCUAACAAAAAAGACUAAUCUGCCACAAAGCUAGAGAGCAUCUUUGGCUGCAGAGGCGGCAGCCUUCGGUGUCGCGAUAGCGCCAUCGUUCUCAACUAUGACACCCAAAACGCGUGCUCCGUUGAAUGGAGUUUAUCAUG,≤ -4.2
2,GGAUCUUCUCGAUCUAACAAAAAAGACACAUCUGCCACCAAGCUUGAGAGCAACUUCGGAUGCAGAGGCGGCAGCCUUCGGUGGCGCGAUAGCGCCAACGUUCUCAACUAUGACACGCAAAGAGCGUGCUCCGUGGAAUGGAGUUAAUCAUG,≤ -4.2
3,GGAUCUUCUCGAUCUAACAAAAAAGACACAUCUGCCACAAAGCUUGAGAGCCUCUUCGGAUGCAGAGGCGGCAGCCUUCGGUGGCGCUAUAGCGCCAACGUUCUCAACUAUGACACGCAAAACGCGUGCUCCGUUGAAUGGAGUUUAUCAUG,≤ -4.2
4,GGAUCUUCUCGAUCUAACAAAAAAGACUAAUCUGCCACAAAGCUAGAGAGCAUCUUUGGGUGCAGAGGCGGCAGGCUUCGGUGGCGCGAUAGCACCAACGUUCUCAACUAUGACACGCAAAACGCCUGCUCCGUUGAAUGGAGUUUAUCAUG,≤ -4.2
5,GGAUCUUCUCGAUCUAACAAAAAAGACUAAUCUGCCACAAAGCUUGAGAGCAUCUUCGGAUGCAGAGGCGGCAGCCUUCGGUGGCGCAAUAGCACCAAGGUUGACAGCUAUGACACGCAAAACGCGUGCUCCGUUGAAUGGAGUUUAUCAUG,≤ -4.2
6,GGAUCUUCUCGAUCUAACAAAAAAGACUAAUCUGCCACAAAGCUUGAGAGCAUCUUCGGAUGCAGAGGCGGCAGCCUUCGGUGGCGCAAUAGCGCCAACGUUCUCAGCUAUGACACGCAAAACGCGUGCUCCGUUGAAUGGCGUUUAUCAAG,≤ -4.2
7,GGAUCUUCUCGAUCUAACAAAAAAGACACAUCUGCCGCAAAGCUUGAGAGCAUCUUCGGAUGCACAGGCGGCAGGCAUCGGUGGCGCGAUAGCGCCGACGUUCUCAACUAUGACACGUAAAAUGCGUGCUCCGUUGAAUGGAGUUUAUCAUG,≤ -4.2
8,GGAUCUUCUCGAUCUAACAAAAAAGACUAAUCGGCCACAAAGGUUGCGAGCAUCGACGGAUGCAGAGGCGGCAGCCUUCGGUGACGGGAUAGCGCCAACGUUCUCGCCUAUGACACGCAAAACGCGUGCUCCUUUGAAUUGAGUUUAUCAUG,≤ -4.2
9,GGAUCUUCUCGAUCUAACAAAAAAGACUAAUCUGCCACAAAGCUUGAGAGCAUCGUCGGAUGCAGAGGCGGCAGCCUUCGGUGGGGCAUUAGCGCCAACGUUUUCAACUAUGACACGCAAAACGCGUGCUCCGUUGAAUGGACUUUAUCAUG,≤ -4.2
10,GGAUCUUCUCGAUCUAACAAAAAAGACACAUCUGUCACAAAGCUUGAGAGCAACUUCGGAUGCAGAGGCGGCAGCGUUCGGUGGCGCGAUAACGCCAAAGUUCUCAACUAUGACACGCAAAGCUCGUGCUCCGUUGAAUGGAGUUUAUCAUG,≤ -4.2
11,GGAUCUUCUCGAUCUAACAAAAAAGACUAAUCUGCCACAAAGCUUGAGAGCAUCUUCGGAAGCAGAGGCGGCACCCUUCGGUGGCGCGAUAGCGCCAACGUUCUCAACUAUGACACGCAAAACGCGUGCUCCGUUGAAUGGAGUUUAUCAUG,≤ -4.2
12,GGAUCUUCUCGAUCUAACAAAAAAGACUAAUCUGCCACAAAGCUUGAGAGCAUCUUCGGAUGCAGAGGCGGCAGCCUUCGGUAGCGCGAUAGCGCCAACGUUCUCAACUAUGACAUGCAAAACGCGUGCUCCGUUGAAUGGAGUAUAUCAUG,≤ -4.2
13,GGAUCUUCUCGAUCUAACAAAAAAGACACAUCUGCCACAAAGCUUGAGGGCAUCUUCGGAUGCAGAGGGGGCAGCCGUUGGUGGCGCGAUAGCGCCAACGUUCUCAACUAUGACAUGCAAAACGCGUGCUCCGUUGAAUGGAGUUAAUCAUG,≤ -4.2
14,GGAUCUUCUCGAUCUAACAAAAAAGACACAUCAGCCACAAUACUUGAGAGCAUCUUCGGAUGCAGAGGCGGCAGCCUUCGGUCGCGCGAUAGCGCUAACGUUCUCAAGUAUGACACGCAAAACGCGUGCUCCGUUGAAUGGAGUUUAUCAUG,≤ -4.2
15,GGAUCUUCUCGAUCUAACAAAAAAGACUAAUCUGCCACAAAGCUUGAGAGCAUCUUCGUAUGCAGAGGCGGCAUCCUUCGGUGGGGCGAUAGCGCCAACGUUCUCAACUAUGUAACGCAAAACGCGAGCUCCGUUGAAUGGAGUUUAUCAUG,≤ -4.2
16,GGAUCUUCUCGAUCUAACAAAAAAGACACAUCUGCCACGAAGCUUGAGAGCAUCUUCGGAUGCAGAGGCGGCAGCCUUCGGUGGCGCGAUAGCGCCAACGUUCUCAACUAUGACACGCAAAACGCGUGCUCCGUUGAAAGGAGUUUAUCAUG,≤ -4.2
17,GGAUCUUCUCGAUCUAACAAAAAAGACACAUCUGCCUCAAAGCUUGAGAGCAUCUUCGGAUGCAGAGGCGGCAGCCUUCGGUGGCGCGAUAGCGCCAACGUUCUCAAUUAUGACACGCAAAACGCGUGCUCCGUUGAAUGGAGUUUAUCAUG,-4.09
18,GGAUCUUCUCGAUCUAACAAAAAAGACACAUCUGCCACAAAGCUUGAGAGCAUCUUCGGAUGCAGAGGCGGCAGCCUUCGGUGACGCGAUAGCGCCAACGUUCUCAACUAUGACACGCAAAACGCGUGCUCCGUUGAAUGGAGUUUAUCAUG,-4.17
19,GGAUCUUCUCGAUCUAACAAAAAAGACUAAUCUGCCACAAAGCAUGAGAGCAUCUUCGGAUGCAGAGGCGGCAGCCUUCGGUGGCGGGAUAGCGCCAACGUUCUCCACUAUGACACGCAAAACGCGUGCUCCGUUGAAUGGAGUUUAUCAUG,≤ -4.2
